{
  "source": "the RNAGym collection of RNA variant scans (doi:10.7554/elife.90254)",
  "parents": {"B1": {"name": "OR4K15 (parent)", "chain": "GUUAACGGUCAUAGGCCAUGGAAACUAGGAGCACCAUUUCGCUGCCAGUGAAGAAAUGAACAAAGAAAAUCUGGGCCAGGCAGGCAUCAAAAGAAAUAGUCUUGCGCUCAACCAGAAAGUCUGUAAUCAUUUUAAGGGUA"}},
  "data": [
    {"variants_of": "B1", "test": "self-cleavage, relative activity (ratio to wild type); higher = more cleavage; in vitro, sequencing; the parent is a self-cleaving ribozyme", "values": [
      {"variant": "A90U A135G", "self-cleavage": 2.04},
      {"variant": "A94G C101A", "self-cleavage": 0.3},
      {"variant": "A94G C105U", "self-cleavage": 0.38},
      {"variant": "A92G U122G", "self-cleavage": 2.31},
      {"variant": "A92G U122A", "self-cleavage": 1.96},
      {"variant": "A91G U132A", "self-cleavage": 0.69},
      {"variant": "A91G U132C", "self-cleavage": 0.88},
      {"variant": "A91U A95G", "self-cleavage": 2.58},
      {"variant": "A90G A116G", "self-cleavage": 0.8},
      {"variant": "A94G A135U", "self-cleavage": 1.8},
      {"variant": "A89U C109G", "self-cleavage": 0.01},
      {"variant": "A96G A110C", "self-cleavage": 0.15},
      {"variant": "A94G", "self-cleavage": 1.39},
      {"variant": "A94U", "self-cleavage": 1.08},
      {"variant": "A94C", "self-cleavage": 1.69},
      {"variant": "A94G A98G", "self-cleavage": 0.27},
      {"variant": "A92G A117G", "self-cleavage": 1.47},
      {"variant": "A92G A117U", "self-cleavage": 0.8},
      {"variant": "A89U A92G", "self-cleavage": 2.32},
      {"variant": "A94U G106U", "self-cleavage": 0.01},
      {"variant": "A92G C109U", "self-cleavage": 0.59},
      {"variant": "A89U A98G", "self-cleavage": 0.66},
      {"variant": "A89U A126U", "self-cleavage": 0.65},
      {"variant": "A92G U100C", "self-cleavage": 1.84},
      {"variant": "A94G A114G", "self-cleavage": 0.36},
      {"variant": "A91G A135G", "self-cleavage": 1.06},
      {"variant": "A90G U103A", "self-cleavage": 0.26},
      {"variant": "A96G A126U", "self-cleavage": 1.49},
      {"variant": "A96G A98G", "self-cleavage": 0.91},
      {"variant": "A96G A98U", "self-cleavage": 2.3},
      {"variant": "A96G A98C", "self-cleavage": 0.63},
      {"variant": "A91G C112U", "self-cleavage": 0.01},
      {"variant": "A95G C101A", "self-cleavage": 0.52},
      {"variant": "A95G C101U", "self-cleavage": 1.28},
      {"variant": "A94G U97C", "self-cleavage": 1.12},
      {"variant": "A92U G123U", "self-cleavage": 2.07},
      {"variant": "A96C A116G", "self-cleavage": 0.33},
      {"variant": "G93A A126G", "self-cleavage": 2.16},
      {"variant": "A92U A110U", "self-cleavage": 1.74},
      {"variant": "A92U A114G", "self-cleavage": 0.17},
      {"variant": "A92U A114U", "self-cleavage": 0.14},
      {"variant": "A91G U133C", "self-cleavage": 1.1},
      {"variant": "A92C A129G", "self-cleavage": 1.66},
      {"variant": "A96C U132C", "self-cleavage": 0.83},
      {"variant": "A90U U100C", "self-cleavage": 2.02},
      {"variant": "A90U U100A", "self-cleavage": 0.15},
      {"variant": "A94U U100C", "self-cleavage": 2.56},
      {"variant": "A90U U130C", "self-cleavage": 1.3},
      {"variant": "A90U U127C", "self-cleavage": 1.37},
      {"variant": "A95G A126G", "self-cleavage": 1.12},
      {"variant": "A90G U108A", "self-cleavage": 0.02},
      {"variant": "A90G U108C", "self-cleavage": 0.02},
      {"variant": "A91G C105G", "self-cleavage": 0.01},
      {"variant": "A91G C105A", "self-cleavage": 0.03},
      {"variant": "A95U U122C", "self-cleavage": 1.44},
      {"variant": "A92G U131C", "self-cleavage": 0.49},
      {"variant": "A94U A111G", "self-cleavage": 0.02},
      {"variant": "A94U A111U", "self-cleavage": 0.12},
      {"variant": "A90C U100A", "self-cleavage": 0.92},
      {"variant": "A91G U102A", "self-cleavage": 0.67},
      {"variant": "A92C U124C", "self-cleavage": 0.52},
      {"variant": "A95U A98G", "self-cleavage": 1.46},
      {"variant": "G93A A111G", "self-cleavage": 0.04},
      {"variant": "A92U U131C", "self-cleavage": 1.36},
      {"variant": "A91U A125G", "self-cleavage": 0.38},
      {"variant": "A90G A111G", "self-cleavage": 0.02},
      {"variant": "A95G U127G", "self-cleavage": 2.23},
      {"variant": "A96G C109A", "self-cleavage": 0.37},
      {"variant": "A95G A125G", "self-cleavage": 1.02},
      {"variant": "A94U U103C", "self-cleavage": 0.46},
      {"variant": "A89U U120C", "self-cleavage": 0.5},
      {"variant": "A95U A134G", "self-cleavage": 1.48},
      {"variant": "A92U U139C", "self-cleavage": 1.43},
      {"variant": "A96C U102C", "self-cleavage": 2.16},
      {"variant": "A90U A114U", "self-cleavage": 0.04},
      {"variant": "A90U A118G", "self-cleavage": 1.24},
      {"variant": "A94C A96G", "self-cleavage": 0.94},
      {"variant": "A92G C101U", "self-cleavage": 0.12},
      {"variant": "A94G A118G", "self-cleavage": 0.8},
      {"variant": "A91G G93A", "self-cleavage": 1.82},
      {"variant": "A90G A114U", "self-cleavage": 0.02},
      {"variant": "A92U A94U", "self-cleavage": 2.03},
      {"variant": "A94G A126C", "self-cleavage": 0.82},
      {"variant": "A94G A126G", "self-cleavage": 1.3},
      {"variant": "A94G A126U", "self-cleavage": 1.08},
      {"variant": "A92C C101A", "self-cleavage": 0.13},
      {"variant": "A91C A129G", "self-cleavage": 1.15},
      {"variant": "A89U A96G", "self-cleavage": 1.73},
      {"variant": "A91G U97A", "self-cleavage": 1.05},
      {"variant": "A90G G119A", "self-cleavage": 0.36},
      {"variant": "A91U U132C", "self-cleavage": 1.62},
      {"variant": "A91U U127C", "self-cleavage": 0.87},
      {"variant": "A90U U131C", "self-cleavage": 2.68},
      {"variant": "A90U U108C", "self-cleavage": 0.01},
      {"variant": "A95G A117U", "self-cleavage": 1.7},
      {"variant": "A95G A117G", "self-cleavage": 2.65},
      {"variant": "A92G A118G", "self-cleavage": 1.26},
      {"variant": "A95G G136A", "self-cleavage": 2},
      {"variant": "A94U A129U", "self-cleavage": 1.22},
      {"variant": "A95G C105U", "self-cleavage": 0.43},
      {"variant": "A95G C105G", "self-cleavage": 0.03},
      {"variant": "A91U A118G", "self-cleavage": 0.94},
      {"variant": "A90U A134G", "self-cleavage": 1.26},
      {"variant": "A90U A134U", "self-cleavage": 1.96},
      {"variant": "A90G U127A", "self-cleavage": 2.66},
      {"variant": "A94G A95U", "self-cleavage": 2.66},
      {"variant": "A90G C105U", "self-cleavage": 0.04},
      {"variant": "A92G U127C", "self-cleavage": 0.9},
      {"variant": "A89U A91U", "self-cleavage": 1.24},
      {"variant": "A89U A118U", "self-cleavage": 0.73},
      {"variant": "A91U A98G", "self-cleavage": 0.61},
      {"variant": "A92G A125C", "self-cleavage": 1.44},
      {"variant": "A91C A98G", "self-cleavage": 0.56},
      {"variant": "A91G C128A", "self-cleavage": 0.44},
      {"variant": "A90G C101U", "self-cleavage": 0.21},
      {"variant": "A90U A91G", "self-cleavage": 1.95},
      {"variant": "A91G U103C", "self-cleavage": 0.46},
      {"variant": "A92U U130C", "self-cleavage": 1.59},
      {"variant": "A95G U120C", "self-cleavage": 1.82},
      {"variant": "A95G U120A", "self-cleavage": 2.78},
      {"variant": "A90U U132A", "self-cleavage": 0.72},
      {"variant": "A91G G99A", "self-cleavage": 0.21},
      {"variant": "A96C A118G", "self-cleavage": 0.95},
      {"variant": "A94U A98G", "self-cleavage": 1.06},
      {"variant": "A92U U122C", "self-cleavage": 1.3},
      {"variant": "A94G U100C", "self-cleavage": 2.37},
      {"variant": "A92G C113A", "self-cleavage": 0.01},
      {"variant": "A95G A110C", "self-cleavage": 0.39},
      {"variant": "A95G A110G", "self-cleavage": 0.15},
      {"variant": "G93U A134G", "self-cleavage": 1.18},
      {"variant": "A92G U132G", "self-cleavage": 1.04},
      {"variant": "A92G U132A", "self-cleavage": 1.23},
      {"variant": "G93C A98G", "self-cleavage": 1.57},
      {"variant": "A90G A118C", "self-cleavage": 0.82},
      {"variant": "A90G A118U", "self-cleavage": 0.45},
      {"variant": "A90G A118G", "self-cleavage": 0.47},
      {"variant": "A95G A134G", "self-cleavage": 1.89},
      {"variant": "A89U U122A", "self-cleavage": 0.6},
      {"variant": "A90G A110U", "self-cleavage": 0.94},
      {"variant": "A92G U139C", "self-cleavage": 1.75},
      {"variant": "A90G U120C", "self-cleavage": 0.58},
      {"variant": "A94C U100C", "self-cleavage": 2.31},
      {"variant": "A92C A111G", "self-cleavage": 0.03},
      {"variant": "A94G U102A", "self-cleavage": 0.96},
      {"variant": "A96G A116U", "self-cleavage": 0.24},
      {"variant": "A91G A116U", "self-cleavage": 0.12},
      {"variant": "A91U A117G", "self-cleavage": 1.88},
      {"variant": "A90U U103C", "self-cleavage": 1.27},
      {"variant": "A89U U124C", "self-cleavage": 1.38},
      {"variant": "A89U G119A", "self-cleavage": 2.37},
      {"variant": "A94G A96G", "self-cleavage": 1.35},
      {"variant": "A94G A96U", "self-cleavage": 0.68},
      {"variant": "A96G C121U", "self-cleavage": 2.57},
      {"variant": "A91U A110U", "self-cleavage": 0.82},
      {"variant": "A89U A111G", "self-cleavage": 0.03},
      {"variant": "A89U A111U", "self-cleavage": 0.13},
      {"variant": "A92C U103C", "self-cleavage": 0.93},
      {"variant": "A95G A135G", "self-cleavage": 2.42},
      {"variant": "A95G A135U", "self-cleavage": 1.45},
      {"variant": "A95G A135C", "self-cleavage": 2.68},
      {"variant": "A94U G119A", "self-cleavage": 2.29},
      {"variant": "A91U A135U", "self-cleavage": 1.6},
      {"variant": "A92G G137A", "self-cleavage": 1.34},
      {"variant": "A96G G106C", "self-cleavage": 0.02},
      {"variant": "A95U U132C", "self-cleavage": 1.4},
      {"variant": "A91C A114U", "self-cleavage": 0.05},
      {"variant": "A91G U130C", "self-cleavage": 0.54}
    ]}
  ]
}
